The supplement of paper PMC10126150
± gives the standard deviation of the averaged measurements.

Test system: ATP
Assay: switch fluorescence ratio, 500 uM ATP over buffer (Cy3 cluster intensity, sum of 5 cycles each) (fold (ratio)); higher = stronger signal-on switching upon ATP binding; sequences stand for … in TCGTCGGCAGCGTCAGATGTGTATAAGAGACAGTTTTTTTTTTTTTTTTTTTTTTTTT…TC
Details: aptamer strand: ATP DNA aptamer (quencher-CACCTGGGGGAGTATTGCGGAGGAAGG + anchor), 100 nM annealed; ATP concentration: 500 uM
How it was run: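 Switching-strand clusters labelled with Cy3 on a modified Illumina MiSeq flow-cell were annealed to 100 nM quencher-labelled ATP aptamer, imaged in selection buffer, and re-imaged after 15 min with 500 uM ATP at 22 °C. This was done over five cycles with NaOH stripping and re-annealing in between. The fluorescence ratio is summed target-cycle over summed buffer-cycle Cy3 intensity per cluster, averaged per switch-domain sequence, excluding clusters outside 100-1000 RFU.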
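Further: ATP exposure 15 min at 22 °C before imaging.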

Sequence | switch fluorescence ratio
GTGTTATGGG | 0.978 ± 0.037
CTCTATATTG | 1.008 ± 0.0073
TCTGCTACAA | 1.02 ± 0.038
GGACAATTTT | 0.977 ± 0.0015
TTCGCTGGGT | 0.995 ± 0.017
CTGTTTCGGG | 0.978 ± 0.029
CCATAAGAAT | 1.01 ± 0.038
AGTCTTGGTG | 0.973 ± 0.018
CAAGATTCTT | 0.975 ± 0.056
GATCGGAGCG | 1.04 ± 0.047
GGGATAAGGT | 0.979 ± 0.03
TGAAGCTTGT | 1.004 ± 0.003
CAGAGTGTGG | 0.955 ± 0.026
TTTGGAGTGC | 1 ± 0.05
CCTTTGGAAT | 1.16 ± 0.031
TACATTTAGG | 0.9964 ± 0.0092
AAGCCGAGGG | 1.017 ± 0.0022
ACGTTTTCGG | 0.9837 ± 0.0052
AGTAGTTTCG | 0.983 ± 0.037
GGGGCTAGAT | 1.034 ± 0.0076
ACGGGTATGG | 1.01 ± 0.017
CGGGGGAAGG | 0.979 ± 0.026
AGAATATTTT | 0.963 ± 0.011

Sequence | switch fluorescence ratio
TGTCTTAGGA | 0.999 ± 0.019
GGAAGTCGTT | 0.994 ± 0.016
TCGCTTACTG | 1.3 ± 0.053
AAAATCGCGG | 0.9844 ± 0.0018
TCTTAGTTTG | 0.986 ± 0.015
CCTAACAGGA | 1.01 ± 0.04
TTAGGGCTAG | 0.9932 ± 0.0081
AAGAAATTTT | 0.984 ± 0.012
GATGGCGGGA | 1.02 ± 0.025
ATTGGACTAC | 1.07 ± 0.03
GTGTGATTTT | 0.992 ± 0.028
GATAGTTTTG | 0.9856 ± 0.0089
GGGACCCAAG | 1.02 ± 0.046
TGCGATTGGT | 1.01 ± 0.012
GGGGGACGGG | 1.02 ± 0.029
TTGTTAGATC | 0.984 ± 0.036
CAGGGTTTCG | 1.02 ± 0.078
GATTCACGA | 0.984 ± 0.015
CGGCCCCCGT | 1.4 ± 0.46
TATTTGGGCA | 1.01 ± 0.041
TTTTTAGGCC | 0.999 ± 0.016
TTTTGATTGA | 1.03 ± 0.034
TAAACGGTCA | 1.07 ± 0.022

Sequence | switch fluorescence ratio
CATGCTATTC | 1.17 ± 0.049
CGGTGAGGCT | 0.984 ± 0.017
CGATGGGGAC | 1.14 ± 0.019
AGTGTTGGGT | 1.02 ± 0.01
TCTCTATCCG | 0.997 ± 0.046
GAGCATTTTT | 0.969 ± 0.029
TTTTAAGGAT | 1 ± 0.024
TTAGGAAATT | 1.04 ± 0.032
ATTACGTGTA | 1.012 ± 0.0039
TTGGGGATGG | 1.01 ± 0.047
GACACTGCCC | 1.13 ± 0.048
TTTTAGGGGT | 1.02 ± 0.046
TTAAATTTTA | 1.01 ± 0.019
GATTTAAAGG | 1.04 ± 0.025
TAGTTTGAAT | 1.01 ± 0.024
AAGGTTATTG | 1.026 ± 0.0088
ATGTGGACAA | 1.02 ± 0.021
ACGCTGGTGT | 1.34 ± 0.44
TCGTATCGTA | 0.975 ± 0.013
TTTACATGCG | 0.935 ± 0.031
GGGCGAAGCG | 0.986 ± 0.035
AGAGATGAGA | 1.02 ± 0.031
AGCGGCAACG | 1.08 ± 0.098

Sequence | switch fluorescence ratio
TGTGTGAGGT | 1.06 ± 0.027
TTTATTCTGT | 1 ± 0.022
ATCGTTCGGC | 0.976 ± 0.037
GATTACGGGG | 1.006 ± 0.0014
GTGGTGGAAA | 1 ± 0.0029
GGTGGGTTTG | 1.03 ± 0.024
GAATTATTTT | 1.12 ± 0.16
CAGAAGTTTG | 1 ± 0.034
TGGCTGTTGA | 1.01 ± 0.018
ACTGTACCCT | 1.22 ± 0.016
TGGTAAAGCA | 1.06 ± 0.11
TTGTTAACAG | 0.997 ± 0.018
TGGCACCTTT | 1.11 ± 0.036
TATCGGTCTT | 0.9224 ± 0.0088
GAGGGCCGTG | 0.933 ± 0.043
TCTTGGTAAT | 0.996 ± 0.018
GACACGTGTT | 1.03 ± 0.045
ATAGTGGGGG | 0.975 ± 0.017
ATCATAGGAT | 1.0329 ± 0.00082
ATTTACCAGG | 1.18 ± 0.26
AGGGCTGGGG | 0.973 ± 0.019
GAGTTAACGG | 1 ± 0.0026
TGATAAATTT | 1.01 ± 0.023

Sequence | switch fluorescence ratio
TGGAGTTAGA | 0.996 ± 0.035
TAATTTATCG | 1.04 ± 0.038
CGACTGATTA | 0.991 ± 0.013
ACGTTCGGAG | 1.05 ± 0.05
AGGCGGACTG | 1.02 ± 0.13
GGAGTTTGGT | 1.01 ± 0.056
AAGGGGTTAG | 0.975 ± 0.016
GGGTTAGAAG | 0.9797 ± 0.008
GGGAGGACTT | 0.977 ± 0.029
CAGTGGGGCA | 1.03 ± 0.053
TATATTACCA | 1.01 ± 0.051
GCCTACAGGT | 1.03 ± 0.019
CATTCTATGC | 1.03 ± 0.011
CACGTTTCCT | 1.1 ± 0.067
TGCTTGGGTA | 1.01 ± 0.021
TGTACTTTTT | 1.02 ± 0.022
TTTAATAGTT | 1.03 ± 0.022
GACCGGATTC | 1.06 ± 0.11
GGAGTCATAC | 1.63 ± 0.035
AACTGTTGGT | 0.978 ± 0.025
AATAAATTGA | 1.02 ± 0.04
AAGTTGTGGC | 1.01 ± 0.017
AAAGTAGACA | 1.005 ± 0.0063

Sequence | switch fluorescence ratio
TCTAGGGACA | 1.25 ± 0.063
AGCGGGGCGG | 1.02 ± 0.017
CTTTAAGTTT | 0.9967 ± 0.0093
CGCTCCGCCT | 2.36 ± 0.11
CCGGGTTAGT | 1.06 ± 0.017
ATGACGCGGA | 1.048 ± 0.0097
GACTAAATGA | 1.01 ± 0.016
TTTTAAGCAA | 1.53 ± 0.17
ACGTAGGCGG | 1.02 ± 0.062
GATTGCAGGA | 0.9989 ± 0.0039
TTGGCGTCGT | 0.995 ± 0.043
ATTATTTATC | 0.985 ± 0.088
ATTGGCAGTG | 1 ± 0.021
CCCAATTTTG | 1.05 ± 0.069
ACGCTGTCGG | 1.006 ± 0.0068
AGGTAGTGTG | 0.989 ± 0.014
GCTAAATCGG | 1.027 ± 0.0082
GCCTTACAGT | 0.985 ± 0.015
TGGGAAGGGC | 1.02 ± 0.03
TTAATATGTA | 0.9897 ± 0.0074
TAGGACTCTC | 1.01 ± 0.02
CAGTAGTGTC | 0.985 ± 0.041
ACTCGTTAAA | 0.978 ± 0.014

Sequence | switch fluorescence ratio
TAGGTATATT | 0.97 ± 0.019
GACGTATCAA | 1.04 ± 0.025
GCGTCGAACA | 0.999 ± 0.068
TAAGATGTAA | 1.03 ± 0.011
GGGTTATTCT | 1.01 ± 0.049
CATGTTTGTG | 0.982 ± 0.023
GTAGAAATTC | 1.24 ± 0.048
TGTGGGAGCG | 0.9542 ± 0.0021
GGCCCGGGGG | 1.01 ± 0.028
CCCAAAGCGG | 1.09 ± 0.032
TTACCGTGCC | 1.27 ± 0.059
AGTAATATAT | 0.976 ± 0.028
TGGATAGGGT | 0.961 ± 0.037
TCGCGGCAGT | 1.04 ± 0.015
AGTACTAAAG | 1.01 ± 0.033
GCCGGGGTTG | 1 ± 0.021
CTACTATAAT | 1.04 ± 0.043
CTGTGTAGCT | 1.02 ± 0.024
GCGAGTCTCA | 1.007 ± 0.01
